For experiment [1], the target named is T1, Chicken calmodulin (CaM) (chicken, UniProt P62149 1-149). As to the kind of experiment: steady-state intrinsic Trp fluorescence.
Experiment [2] has as its target T1, Chicken calmodulin (CaM). As to the kind of experiment: NMR titration.
In experiment [3] the target is recombinant rAQP4ct protein (complete cytosolic C-terminal domain of human AQP4, residues 254-323) (human, UniProt P55087-1 254-323). The experiment in a line: steady-state intrinsic Trp fluorescence.

Take PTARRWGKSGPLSTRENIMVAFKGVAT [recombinant rAQP4ntW30A peptide]: the binding result in experiment [1] is recorded as “binds”.
In the case of Ac-TARRWGKSGPLSTRENIMVAFKGVWT-NH2 [human AQP4nt synthetic peptide (residues 6-31, two Cys modified to Ser)], in experiment [2], the equilibrium dissociation constant (Kd) was found to be 3.4 µM and the “stoichiometry N” value is 1.
For the molecule Ac-VEFKRRFKEAFSKAAQQTKGSYMEV-NH2 [human AQP4ct synthetic peptide (residues 256-280)], in experiment [2], the “apparent Kd, C-lobe of CaM (first binding event)” value was 3.6 µM; the “apparent Kd, N-lobe of CaM (second binding event)” value was 114 µM; the “stoichiometry N” value is 2.
Take PTARRWGKSGPLSTR [recombinant rAQP4nt6-19 truncated peptide]: the binding result in experiment [2] is reported as “binds”.

B1: CaM bound AQP4nt-W30A peptide (complex)
chain 1: […]
chain 2: PTARRWGKSGPLSTRENIMVAFKGVAT
As to B1, the binding result in experiment [3] was “binds”.
